From the supplement of paper PMC10065799, “High-throughput profiling of sequence recognition by tyrosine kinases and SH2 domains using bacterial peptide display” (eLife, 2023)

Assays:
Hck = Hck (UniProt P08631); test: phosphorylation enrichment, bacterial display (enrichment ratio); higher = better substrate or ligand; peptides without Tyr show the background
Jak2 = Jak2 (UniProt O60674); test: as above
Fes = Fes (UniProt P07332); test: as above
FGFR1 = FGFR1 (UniProt P11362); test: as above
Fer (mouse) = test: as above
EPHB2 = EPHB2 (UniProt P29323); test: as above
EPHB1 = EPHB1 (UniProt P54762); test: as above
MERTK = MERTK (UniProt Q12866); test: as above
AncSZ = test: as above
FGFR3 = FGFR3 (UniProt P22607); test: as above
c-Src = test: as above
c-Abl (mouse) = test: as above
Fyn = Fyn (UniProt P06241); test: as above
c-Src SH2 = test: SH2 binding enrichment of the phosphorylated peptide, bacterial display (enrichment ratio); higher = better substrate or ligand; peptides without Tyr show the background
SHP2-C SH2 = test: as above
Grb2 SH2 = Grb2 SH2 (UniProt P62993); test: as above
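Throughout, for SH2 binding enrichment of the phosphorylated peptide, bacterial display: peptide library displayed on the E. coli surface as eCPX fusions, selected cells deep-sequenced, score is each peptide's frequency after selection divided by its frequency in the input.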
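Throughout, for phosphorylation enrichment, bacterial display: 11-residue human phosphosite peptides and single-mutation variants displayed on the E. coli surface, counted by deep sequencing, each peptide's frequency after selection divided by its frequency in the unselected input library; frequency after pTyr selection over input frequency; kinase dosed for 20-30% of maximal phosphorylation in three min.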

EPHB1, sequence (P54762 whole entry, looked up): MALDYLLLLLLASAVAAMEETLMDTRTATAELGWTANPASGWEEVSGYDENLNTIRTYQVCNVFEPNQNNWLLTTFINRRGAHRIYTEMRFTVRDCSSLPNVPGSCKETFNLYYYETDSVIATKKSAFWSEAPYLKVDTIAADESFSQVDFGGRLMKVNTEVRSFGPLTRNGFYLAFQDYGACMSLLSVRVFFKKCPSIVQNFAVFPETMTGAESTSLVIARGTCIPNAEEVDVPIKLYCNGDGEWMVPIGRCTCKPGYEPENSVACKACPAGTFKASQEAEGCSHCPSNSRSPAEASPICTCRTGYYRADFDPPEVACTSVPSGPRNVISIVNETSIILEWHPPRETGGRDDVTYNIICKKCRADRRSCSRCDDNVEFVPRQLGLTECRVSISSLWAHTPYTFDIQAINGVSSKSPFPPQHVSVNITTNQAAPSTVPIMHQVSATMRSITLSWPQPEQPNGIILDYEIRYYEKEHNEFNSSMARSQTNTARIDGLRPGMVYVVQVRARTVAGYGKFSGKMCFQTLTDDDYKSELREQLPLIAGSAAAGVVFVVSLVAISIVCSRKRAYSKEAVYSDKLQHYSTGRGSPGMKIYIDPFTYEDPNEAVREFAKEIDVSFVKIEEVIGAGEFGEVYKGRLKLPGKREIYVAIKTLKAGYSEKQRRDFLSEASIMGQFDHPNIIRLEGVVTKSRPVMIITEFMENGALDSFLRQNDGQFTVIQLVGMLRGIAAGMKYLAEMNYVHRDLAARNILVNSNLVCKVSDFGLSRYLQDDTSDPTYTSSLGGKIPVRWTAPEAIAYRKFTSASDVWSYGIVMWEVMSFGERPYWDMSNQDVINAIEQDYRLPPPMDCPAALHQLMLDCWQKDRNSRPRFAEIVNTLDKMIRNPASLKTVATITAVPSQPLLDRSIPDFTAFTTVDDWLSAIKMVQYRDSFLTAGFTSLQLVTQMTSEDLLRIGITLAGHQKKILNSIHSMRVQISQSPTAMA
Hck, sequence (P08631 whole entry, looked up): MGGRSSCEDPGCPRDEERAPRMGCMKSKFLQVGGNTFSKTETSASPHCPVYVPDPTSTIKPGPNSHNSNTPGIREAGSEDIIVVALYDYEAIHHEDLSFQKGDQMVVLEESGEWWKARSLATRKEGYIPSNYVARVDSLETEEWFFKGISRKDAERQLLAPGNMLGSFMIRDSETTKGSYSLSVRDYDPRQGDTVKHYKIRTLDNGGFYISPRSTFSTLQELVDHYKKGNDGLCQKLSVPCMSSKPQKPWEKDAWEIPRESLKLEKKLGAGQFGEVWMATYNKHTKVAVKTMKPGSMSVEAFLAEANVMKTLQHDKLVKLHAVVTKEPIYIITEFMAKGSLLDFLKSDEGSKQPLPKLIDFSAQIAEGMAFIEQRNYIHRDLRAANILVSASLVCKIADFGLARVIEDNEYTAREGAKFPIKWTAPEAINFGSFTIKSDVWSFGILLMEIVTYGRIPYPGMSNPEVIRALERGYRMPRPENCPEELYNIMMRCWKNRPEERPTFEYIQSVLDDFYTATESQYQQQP
Fes, sequence (P07332 whole entry, looked up): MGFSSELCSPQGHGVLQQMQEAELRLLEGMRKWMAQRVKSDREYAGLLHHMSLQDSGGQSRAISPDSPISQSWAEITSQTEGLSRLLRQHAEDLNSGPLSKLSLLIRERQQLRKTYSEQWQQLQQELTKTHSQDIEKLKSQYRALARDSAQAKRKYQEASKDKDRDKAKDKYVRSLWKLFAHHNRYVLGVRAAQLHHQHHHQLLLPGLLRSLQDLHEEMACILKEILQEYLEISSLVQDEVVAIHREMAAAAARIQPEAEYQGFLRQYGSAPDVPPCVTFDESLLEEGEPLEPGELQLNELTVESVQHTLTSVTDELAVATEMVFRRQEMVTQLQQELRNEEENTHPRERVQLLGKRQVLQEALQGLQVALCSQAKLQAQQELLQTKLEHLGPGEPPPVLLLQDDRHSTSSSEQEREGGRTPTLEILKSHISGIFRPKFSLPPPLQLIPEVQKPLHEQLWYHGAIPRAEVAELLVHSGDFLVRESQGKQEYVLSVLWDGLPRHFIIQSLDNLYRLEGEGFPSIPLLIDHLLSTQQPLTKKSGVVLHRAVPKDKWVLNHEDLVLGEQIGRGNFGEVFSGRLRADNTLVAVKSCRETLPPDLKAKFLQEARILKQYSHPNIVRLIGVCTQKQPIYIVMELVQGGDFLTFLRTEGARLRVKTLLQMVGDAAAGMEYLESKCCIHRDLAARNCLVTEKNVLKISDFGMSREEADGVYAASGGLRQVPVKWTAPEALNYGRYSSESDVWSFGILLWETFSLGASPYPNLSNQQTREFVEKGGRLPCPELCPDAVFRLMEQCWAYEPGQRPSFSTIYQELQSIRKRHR
EPHB2, sequence (P29323 whole entry, looked up): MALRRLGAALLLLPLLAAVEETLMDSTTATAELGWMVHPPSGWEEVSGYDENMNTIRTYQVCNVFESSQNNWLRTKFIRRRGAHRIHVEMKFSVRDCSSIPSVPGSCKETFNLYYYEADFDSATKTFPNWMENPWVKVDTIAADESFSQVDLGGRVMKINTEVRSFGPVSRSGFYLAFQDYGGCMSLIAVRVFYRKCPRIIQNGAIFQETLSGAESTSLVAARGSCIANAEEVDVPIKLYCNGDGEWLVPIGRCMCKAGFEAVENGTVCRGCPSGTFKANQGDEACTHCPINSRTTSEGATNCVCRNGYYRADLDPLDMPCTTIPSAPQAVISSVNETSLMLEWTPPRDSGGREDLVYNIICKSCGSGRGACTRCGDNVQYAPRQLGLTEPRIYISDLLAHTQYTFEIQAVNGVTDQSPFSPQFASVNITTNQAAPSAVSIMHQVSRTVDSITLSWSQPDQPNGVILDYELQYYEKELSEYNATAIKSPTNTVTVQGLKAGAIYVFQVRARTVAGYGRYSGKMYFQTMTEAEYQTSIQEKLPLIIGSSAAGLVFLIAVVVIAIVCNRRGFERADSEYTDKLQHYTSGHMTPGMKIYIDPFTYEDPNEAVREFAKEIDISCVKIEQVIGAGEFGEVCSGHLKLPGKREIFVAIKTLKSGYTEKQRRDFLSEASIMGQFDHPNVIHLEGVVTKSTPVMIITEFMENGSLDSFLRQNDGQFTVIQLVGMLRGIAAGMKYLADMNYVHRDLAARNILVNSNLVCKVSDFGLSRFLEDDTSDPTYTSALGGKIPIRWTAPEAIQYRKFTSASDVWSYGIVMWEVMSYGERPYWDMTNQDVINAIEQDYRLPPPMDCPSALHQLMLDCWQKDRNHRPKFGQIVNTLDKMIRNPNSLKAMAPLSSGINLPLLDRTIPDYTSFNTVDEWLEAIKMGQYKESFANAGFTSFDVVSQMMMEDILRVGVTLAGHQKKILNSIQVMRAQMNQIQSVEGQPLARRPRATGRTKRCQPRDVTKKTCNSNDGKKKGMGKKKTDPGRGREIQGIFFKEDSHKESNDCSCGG
Fyn, sequence (P06241 whole entry, looked up): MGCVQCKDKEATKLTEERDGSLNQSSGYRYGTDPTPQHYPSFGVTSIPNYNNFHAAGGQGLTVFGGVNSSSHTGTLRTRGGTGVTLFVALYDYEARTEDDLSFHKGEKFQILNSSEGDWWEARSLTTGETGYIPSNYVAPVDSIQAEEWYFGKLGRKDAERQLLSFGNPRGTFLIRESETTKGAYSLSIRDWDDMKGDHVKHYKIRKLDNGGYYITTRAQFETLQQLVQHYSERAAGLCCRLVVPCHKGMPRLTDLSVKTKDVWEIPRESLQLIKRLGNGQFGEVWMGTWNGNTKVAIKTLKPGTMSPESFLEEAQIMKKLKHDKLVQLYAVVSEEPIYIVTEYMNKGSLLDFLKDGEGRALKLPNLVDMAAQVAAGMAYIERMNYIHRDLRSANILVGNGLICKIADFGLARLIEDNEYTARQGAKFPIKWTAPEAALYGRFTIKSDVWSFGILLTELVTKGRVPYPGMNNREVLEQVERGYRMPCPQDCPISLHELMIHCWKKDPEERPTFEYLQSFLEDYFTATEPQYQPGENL
FGFR3, sequence (P22607 whole entry, looked up): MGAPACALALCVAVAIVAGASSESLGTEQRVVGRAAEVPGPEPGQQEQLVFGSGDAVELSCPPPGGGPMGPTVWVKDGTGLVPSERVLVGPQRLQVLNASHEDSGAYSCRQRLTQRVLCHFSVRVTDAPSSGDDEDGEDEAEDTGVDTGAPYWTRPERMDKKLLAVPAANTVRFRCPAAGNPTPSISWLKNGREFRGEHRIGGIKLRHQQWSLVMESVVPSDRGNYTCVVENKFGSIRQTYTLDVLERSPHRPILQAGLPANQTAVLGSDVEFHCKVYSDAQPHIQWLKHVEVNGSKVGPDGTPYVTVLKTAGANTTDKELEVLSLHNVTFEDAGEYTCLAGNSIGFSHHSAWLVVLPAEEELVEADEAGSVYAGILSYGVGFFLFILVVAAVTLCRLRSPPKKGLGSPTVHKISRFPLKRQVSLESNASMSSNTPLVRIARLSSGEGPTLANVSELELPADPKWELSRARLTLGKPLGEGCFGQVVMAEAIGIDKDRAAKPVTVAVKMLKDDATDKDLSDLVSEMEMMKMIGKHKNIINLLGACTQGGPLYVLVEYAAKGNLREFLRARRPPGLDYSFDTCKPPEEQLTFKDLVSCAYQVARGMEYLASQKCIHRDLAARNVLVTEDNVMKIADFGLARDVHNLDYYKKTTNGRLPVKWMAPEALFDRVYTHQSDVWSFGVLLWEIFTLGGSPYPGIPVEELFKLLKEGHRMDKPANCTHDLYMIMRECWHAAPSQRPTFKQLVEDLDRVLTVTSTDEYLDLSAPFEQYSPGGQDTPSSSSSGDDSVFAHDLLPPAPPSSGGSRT
Grb2 SH2, sequence (P62993 whole entry, looked up, the tested form may be a part): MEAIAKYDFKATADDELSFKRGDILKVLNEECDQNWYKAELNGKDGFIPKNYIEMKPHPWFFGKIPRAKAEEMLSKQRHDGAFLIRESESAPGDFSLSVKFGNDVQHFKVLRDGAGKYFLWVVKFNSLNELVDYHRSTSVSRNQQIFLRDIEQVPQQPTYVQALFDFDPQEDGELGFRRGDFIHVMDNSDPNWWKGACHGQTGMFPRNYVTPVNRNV

Row | Sequence | phosphorylation enrichment (Hck) | phosphorylation enrichment (Jak2) | phosphorylation enrichment (Fes) | phosphorylation enrichment (FGFR1) | phosphorylation enrichment (Fer (mouse)) | phosphorylation enrichment (EPHB2) | phosphorylation enrichment (EPHB1) | phosphorylation enrichment (MERTK) | phosphorylation enrichment (AncSZ) | phosphorylation enrichment (FGFR3) | phosphorylation enrichment (c-Src) | phosphorylation enrichment (c-Abl (mouse)) | phosphorylation enrichment (Fyn) | SH2 binding enrichment (c-Src SH2) | SH2 binding enrichment (SHP2-C SH2) | SH2 binding enrichment (Grb2 SH2)
1 | AAETTYDKILK [GDNF_Y156] | 1.36 | 0.888 | 1.09 | 0.467 | 0.474 | 0.496 | 0.555 | 0.376 | 0.886 | 0.725 | 0.501 | 0.521 | 0.596 | 3.75 | 1.28 | 0.708
2 | AAVDNYCRHNY [HLA-DRB1_Y107_T106N] | 0.461 | 0.612 | 0.808 | 0.521 | 0.427 | 0.669 | 0.519 | 0.46 | 0.621 | 0.649 | 0.376 | 0.502 | 0.388 | 0.631 | 0.72 | 0.765
3 | AAVNGYVFGGG [ECHS1_Y137_A138V] | 0.429 | 0.591 | 0.542 | 0.437 | 0.414 | 0.398 | 0.419 | 0.401 | 0.596 | 0.629 | 0.461 | 0.582 | 0.404 | 0.489 | 0.994 | 0.791
4 | ADFFDYGHGLS [KHDRBS3_Y304_YF] | 0.522 | 1.03 | 0.905 | 0.459 | 0.433 | 0.38 | 0.585 | 0.434 | 0.709 | 0.727 | 0.449 | 0.76 | 0.438 | 0.437 | 0.741 | 0.863
5 | ADKAAYLQSMN [MYH2_Y389_L393M] | 0.436 | 0.609 | 0.761 | 0.47 | 0.411 | 0.419 | 0.545 | 0.366 | 0.499 | 0.654 | 0.459 | 0.591 | 0.415 | 0.449 | 0.525 | 0.788
6 | ADRNHYRRYRR [YBX1_Y145_P149R] | 0.522 | 0.549 | 0.861 | 0.532 | 0.488 | 0.499 | 0.522 | 0.532 | 0.619 | 0.572 | 0.608 | 0.661 | 0.525 | 0.538 | 0.467 | 0.513
7 | ADRSCYDLSCR [GARS1_Y467_H472R] | 0.594 | 0.8 | 0.835 | 0.499 | 0.474 | 0.591 | 0.487 | 0.445 | 0.849 | 0.55 | 0.616 | 0.847 | 0.572 | 1.17 | 0.779 | 1.06
8 | ADSLRYIYPKL [EIF2B3_Y92] | 0.386 | 0.634 | 0.602 | 0.354 | 0.339 | 0.362 | 0.416 | 0.43 | 0.552 | 0.463 | 0.472 | 0.471 | 0.332 | 12.5 | 1.89 | 1.05
9 | ADYYDYGHGLS [KHDRBS3_Y304] | 6.46 | 5.75 | 1.11 | 18.5 | 1.95 | 20.5 | 17.9 | 4.16 | 3.92 | 16.8 | 4.65 | 0.986 | 6.6 | 0.601 | 0.634 | 1.04
10 | AELVQYFMEHH [PTPN11_Y80_YF] | 0.66 | 0.695 | 1.08 | 0.652 | 0.463 | 0.545 | 0.618 | 0.508 | 1.02 | 0.762 | 0.437 | 0.547 | 0.623 | 0.473 | 0.84 | 1.05
11 | AESPEHVHMYT [FAM111A_Y511_Y511H] | 0.547 | 0.687 | 0.861 | 0.533 | 0.432 | 0.474 | 0.523 | 0.377 | 0.812 | 0.609 | 0.369 | 0.476 | 0.476 | 0.489 | 0.674 | 0.822
12 | AEYGLYGAMVR [VSX2_Y222] | 6.91 | 0.675 | 0.786 | 0.456 | 2.03 | 2.5 | 0.824 | 1.97 | 0.99 | 0.604 | 5.06 | 0.908 | 7.64 | 0.508 | 0.636 | 0.806
13 | AFEQQYSPIPR [NOX1_Y373] | 4.92 | 0.583 | 0.707 | 1.07 | 0.451 | 0.512 | 0.404 | 1.25 | 0.767 | 0.769 | 0.989 | 0.701 | 0.624 | 0.508 | 0.724 | 0.772
14 | AFGTVYKGLWI [EGFR_Y727] | 0.525 | 1.16 | 1.13 | 0.517 | 0.511 | 0.587 | 0.532 | 0.39 | 1.2 | 0.755 | 0.619 | 0.724 | 0.593 | 0.628 | 1.3 | 0.857
15 | AFLLLYFNDTH [BMP15_Y235] | 0.482 | 1.26 | 1.41 | 0.49 | 0.525 | 0.496 | 0.761 | 0.43 | 1.15 | 0.915 | 0.486 | 1.16 | 0.445 | 0.566 | 0.79 | 1.01
16 | AGLVQYYMEHH [PTPN11_Y80_E76G] | 0.754 | 0.607 | 0.939 | 0.608 | 0.499 | 0.777 | 0.973 | 0.49 | 0.677 | 0.73 | 0.468 | 0.448 | 0.545 | 1.14 | 1.25 | 1.35
17 | AGVIIYTSRFQ [PFAS_Y538_A535V] | 0.664 | 0.87 | 1.42 | 0.679 | 0.574 | 0.631 | 0.636 | 0.429 | 1.05 | 0.792 | 0.578 | 0.522 | 0.649 | 0.49 | 0.794 | 0.791

Row | Sequence | phosphorylation enrichment (Hck) | phosphorylation enrichment (Jak2) | phosphorylation enrichment (Fes) | phosphorylation enrichment (FGFR1) | phosphorylation enrichment (Fer (mouse)) | phosphorylation enrichment (EPHB2) | phosphorylation enrichment (EPHB1) | phosphorylation enrichment (MERTK) | phosphorylation enrichment (AncSZ) | phosphorylation enrichment (FGFR3) | phosphorylation enrichment (c-Src) | phosphorylation enrichment (c-Abl (mouse)) | phosphorylation enrichment (Fyn) | SH2 binding enrichment (c-Src SH2) | SH2 binding enrichment (SHP2-C SH2) | SH2 binding enrichment (Grb2 SH2)
18 | AHLTEYLSTHY [UQCRC1_Y219_D215H] | 0.517 | 0.647 | 0.639 | 0.475 | 0.371 | 0.396 | 0.462 | 0.464 | 0.716 | 0.585 | 0.453 | 0.475 | 0.402 | 0.511 | 0.724 | 0.845
19 | AIFWRYSKFFD [SH3PXD2B_Y45_R43W_YF] | 0.41 | 1.16 | 1.35 | 0.445 | 0.49 | 0.52 | 0.493 | 0.323 | 0.839 | 0.805 | 0.326 | 0.959 | 0.444 | 0.699 | 0.782 | 1.05
20 | AIGCEYSEINI [SIGLEC12_Y588_Y586C] | 2.42 | 0.924 | 1.27 | 3.95 | 5.32 | 0.797 | 1.24 | 0.492 | 1.94 | 2.99 | 2.47 | 0.928 | 1.79 | 0.631 | 0.362 | 0.603
21 | AIGYEYSEINI [SIGLEC12_Y588] | 2.3 | 0.987 | 0.999 | 5.67 | 6.47 | 0.562 | 0.797 | 0.492 | 1.44 | 3.56 | 2.03 | 0.9 | 1.11 | 8.56 | 1.58 | 0.656
22 | AIIGIYILRDN [CDH23_Y2949_D2954N] | 1.6 | 1.05 | 1.39 | 0.604 | 0.596 | 0.631 | 0.687 | 0.423 | 1.36 | 0.793 | 1.68 | 0.888 | 0.925 | 0.987 | 1.42 | 1.44
23 | AKFPFYEKNKK [FOXL2_Y91] | 0.443 | 0.655 | 0.806 | 0.441 | 0.304 | 0.467 | 0.407 | 0.436 | 0.589 | 0.533 | 0.415 | 0.545 | 0.405 | 0.981 | 1.38 | 1.31
24 | AKLDEYIAIAK [RCOR3_Y46] | 0.473 | 0.79 | 0.949 | 0.535 | 0.452 | 0.565 | 0.614 | 0.522 | 0.92 | 0.711 | 0.367 | 0.621 | 0.479 | 0.434 | 0.83 | 0.945
25 | ALDRPYTSKHS [NANS_Y71_E68D] | 0.489 | 0.636 | 0.638 | 0.379 | 0.474 | 0.508 | 0.364 | 0.448 | 0.612 | 0.566 | 0.542 | 0.637 | 0.499 | 0.485 | 0.613 | 0.926
26 | ALLTKYSHSSM [DSCC1_Y374] | 0.485 | 0.542 | 0.737 | 0.45 | 0.56 | 0.643 | 0.442 | 0.436 | 0.651 | 0.587 | 0.528 | 0.727 | 0.578 | 0.406 | 0.488 | 0.76
27 | ANNEYYFRVCA | 0.657 | 1.53 | 1.4 | 1.89 | 0.469 | 0.759 | 0.895 | 0.439 | 1.4 | 1.94 | 0.526 | 1.08 | 0.471 | 0.402 | 0.461 | 0.646
28 | ANVIHYFPTQA [SLC25A4_Y81_R80H] | 0.446 | 0.794 | 0.652 | 0.487 | 0.393 | 0.415 | 0.528 | 0.456 | 0.623 | 0.56 | 0.515 | 0.806 | 0.483 | 0.435 | 0.94 | 0.9
29 | ARKRKYFKKHE [NFIX_Y40] | 0.605 | 0.477 | 0.653 | 0.554 | 0.281 | 0.535 | 0.511 | 0.472 | 0.602 | 0.591 | 0.56 | 0.64 | 0.561 | 0.259 | 0.409 | 0.911
30 | ARRMEYLASQK [FGFR2_Y616_G613R] | 0.333 | 0.367 | 0.557 | 0.372 | 0.293 | 0.558 | 0.947 | 0.402 | 0.461 | 0.437 | 0.382 | 0.286 | 0.367 | 0.469 | 0.464 | 1.09
31 | ASRKYYAMKIL [AKT3_Y174_G171R] | 0.368 | 0.385 | 0.634 | 0.475 | 0.441 | 0.338 | 0.367 | 0.437 | 0.505 | 0.535 | 0.265 | 0.379 | 0.348 | 1.18 | 1.14 | 1.1
32 | ASSPVYVPTTR [GATA6_Y188] | 0.646 | 0.44 | 0.539 | 0.323 | 0.406 | 0.479 | 0.397 | 0.493 | 0.525 | 0.428 | 0.51 | 0.524 | 0.429 | 0.433 | 0.71 | 0.876
33 | ATCKAYGQALA [TKT_Y321_R318C] | 0.431 | 0.645 | 0.73 | 0.445 | 0.484 | 0.446 | 0.523 | 0.419 | 0.753 | 0.573 | 0.493 | 0.568 | 0.424 | 0.453 | 0.631 | 0.899
